# Source: patent publication US20180104312A1 (Eli Lilly, published 2018)
# Where a chain is given by its changes, count along the chain named. Like-named read-outs stand apart in the source and are kept apart here. No end group written: not given here.
# T1: human glucose-dependent insulinotropic polypeptide receptor (human) (UniProt P48546)
# T1 sequence (looked up): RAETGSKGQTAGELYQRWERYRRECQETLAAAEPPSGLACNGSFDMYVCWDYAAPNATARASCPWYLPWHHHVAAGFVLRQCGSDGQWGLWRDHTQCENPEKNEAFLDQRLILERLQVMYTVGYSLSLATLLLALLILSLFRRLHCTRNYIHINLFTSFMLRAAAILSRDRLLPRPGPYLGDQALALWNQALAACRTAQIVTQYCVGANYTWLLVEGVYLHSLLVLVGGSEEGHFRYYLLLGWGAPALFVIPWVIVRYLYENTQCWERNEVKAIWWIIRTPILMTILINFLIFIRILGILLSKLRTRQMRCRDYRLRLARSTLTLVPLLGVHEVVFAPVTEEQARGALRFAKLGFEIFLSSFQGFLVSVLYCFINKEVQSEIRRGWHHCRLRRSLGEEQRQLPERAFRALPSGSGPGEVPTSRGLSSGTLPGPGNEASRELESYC
# T2: human glucose-dependent insulinotropic polypeptide receptor (human, UniProt P48546 22-466)
# T2 sequence (looked up): T1 sequence (looked up)
# B1: Example 7 (peptide)
# peptide: YXQGTFTSDYSKYLDXKKAXEFVAWLLEE
# modifications: Aib at positions 2 and 16; K20 epsilon-amino group conjugated with ([2-(2-Amino-ethoxy)-ethoxy]-acetyl)2-(γGlu)1-CO-(CH2)18-CO2H; C-terminal acid
# B2: human GIP(1-42)NH2 (peptide)
# peptide: YAEGTFISDYSIAMDKIHQQDFVNWLLAQKGKKNDWKHNITQ-NH2
# B3: Example 1 (peptide)
# peptide: YXQGTFTSDYSKYLDXKKAXEFVEWLLETGPSSGAPPPS
# modifications: Aib at positions 2 and 16; K20 epsilon-amino group conjugated with ([2-(2-Amino-ethoxy)-ethoxy]-acetyl)2-(γGlu)2-CO-(CH2)16-CO2H; C-terminal primary amide
# B4: Example 2 (peptide)
# peptide: B3 peptide
# modifications: Aib at positions 2 and 16; K20 epsilon-amino group conjugated with ([2-(2-Amino-ethoxy)-ethoxy]-acetyl)2-(γGlu)2-CO-(CH2)18-CO2H; C-terminal primary amide
# B5: Example 3 (peptide)
# peptide: B3 peptide with T7L
# modifications: Aib at positions 2 and 16; K20 epsilon-amino group conjugated with ([2-(2-Amino-ethoxy)-ethoxy]-acetyl)2-(γGlu)2-CO-(CH2)16-CO2H; C-terminal primary amide
# B6: Example 6 (peptide)
# peptide: YXQGTFTSDYSKYLDXKKAXEFVAWLLEE
# modifications: Aib at positions 2 and 16; K20 epsilon-amino group conjugated with ([2-(2-Amino-ethoxy)-ethoxy]-acetyl)2-(γGlu)1-CO-(CH2)16-CO2H; C-terminal acid
# How the values were obtained:
# [1] = target: T3, human Glucagon-Like Peptide-1 receptor (human, UniProt P43220 24-463); assay: cell-based or functional assay
# Target sequence in this assay (P43220 24-463): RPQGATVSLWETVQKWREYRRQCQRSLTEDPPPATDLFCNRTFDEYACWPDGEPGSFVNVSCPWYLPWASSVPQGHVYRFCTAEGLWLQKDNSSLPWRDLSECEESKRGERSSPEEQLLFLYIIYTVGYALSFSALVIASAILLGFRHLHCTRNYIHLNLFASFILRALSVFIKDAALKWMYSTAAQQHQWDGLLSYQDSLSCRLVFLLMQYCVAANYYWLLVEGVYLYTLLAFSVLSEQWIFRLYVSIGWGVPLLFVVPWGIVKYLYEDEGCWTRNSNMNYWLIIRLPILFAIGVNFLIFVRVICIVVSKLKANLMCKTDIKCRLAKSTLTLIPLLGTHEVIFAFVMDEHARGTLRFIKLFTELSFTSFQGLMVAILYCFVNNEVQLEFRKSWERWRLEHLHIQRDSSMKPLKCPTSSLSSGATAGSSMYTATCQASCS
# [2] = target: T1, human glucose-dependent insulinotropic polypeptide receptor (human); assay: cell-based or functional assay
# [3] = target: T4, recombinant human glucagon receptor (human, UniProt P47871 26-477); assay: cell-based or functional assay
# [4] = target: T4, recombinant human glucagon receptor; assay: I-125-Gcg competition SPA, membranes of 293HEK cells expressing hGcg-R
# Protocol: (§1) The specific activity is 2200 Ci/mmol. KD determination is performed by homologous competition or saturation binding analysis.
# (§2) The receptor binding assay is carried out using a Scintillation Proximity Assay (SPA) format with wheat germ agglutinin (WGA) beads (Perkin Elmer). The binding buffer contains 25 mM 4-(2-hydroxyethyl)-1-piperazineethanesulfonic acid (HEPES), pH 7.4, 2.5 mM CaCl₂, 1 mM MgCl₂, 0.1% (w/v) bacitracin (Affymetrix), 0.003% (w/v) Polyoxyethylenesorbitan monolaurate (TWEEN®-20) and Roche Complete™ Protease Inhibitors without EDTA.
# [5] = target: T2, human glucose-dependent insulinotropic …; assay: cell-based or functional assay
# [6] = target: T3, human Glucagon-Like Peptide-1 receptor; assay: cell-based or functional assay; remark: listed apart in the source
# [7] = target: T4, recombinant human glucagon receptor; assay: cell-based or functional assay; remark: listed apart in the source
# rat glucagon receptor = target: T5, rat glucagon receptor (rat, UniProt P30082 27-485); assay: I-125-Gcg competition SPA, membranes of 293HEK cells expressing rGcg-R
# T5 construct: whole, on cells; Used as membranes of transiently transfected 293HEK cells; also called rGcg-R; rat Gcg-R
# Protocol: as §1, §2
# mouse glucagon receptor = target: T6, mouse glucagon receptor (mouse, UniProt Q61606 27-485); assay: I-125-Gcg competition SPA, membranes of 293HEK cells expressing mGcg-R
# T6 construct: whole, on cells; Used as membranes of a clonal 293HEK line; also called mGcg-R; mGcgR
# Protocol: as §1, §2
# [8] = target: T2, human glucose-dependent insulinotropic …; assay: cell-based or functional assay; remark: listed apart in the source
# [9] = target: T3, human Glucagon-Like Peptide-1 receptor; assay: cell-based or functional assay; remark: listed apart in the source
# [10] = target: T4, recombinant human glucagon receptor; assay: cell-based or functional assay; remark: listed apart in the source
# [11] = target: T2, human glucose-dependent insulinotropic …; assay: cell-based or functional assay; remark: listed apart in the source
# [12] = target: T3, human Glucagon-Like Peptide-1 receptor; assay: cell-based or functional assay; remark: listed apart in the source
# [13] = target: T4, recombinant human glucagon receptor; assay: cell-based or functional assay; remark: listed apart in the source
# T5 sequence (P30082 27-485): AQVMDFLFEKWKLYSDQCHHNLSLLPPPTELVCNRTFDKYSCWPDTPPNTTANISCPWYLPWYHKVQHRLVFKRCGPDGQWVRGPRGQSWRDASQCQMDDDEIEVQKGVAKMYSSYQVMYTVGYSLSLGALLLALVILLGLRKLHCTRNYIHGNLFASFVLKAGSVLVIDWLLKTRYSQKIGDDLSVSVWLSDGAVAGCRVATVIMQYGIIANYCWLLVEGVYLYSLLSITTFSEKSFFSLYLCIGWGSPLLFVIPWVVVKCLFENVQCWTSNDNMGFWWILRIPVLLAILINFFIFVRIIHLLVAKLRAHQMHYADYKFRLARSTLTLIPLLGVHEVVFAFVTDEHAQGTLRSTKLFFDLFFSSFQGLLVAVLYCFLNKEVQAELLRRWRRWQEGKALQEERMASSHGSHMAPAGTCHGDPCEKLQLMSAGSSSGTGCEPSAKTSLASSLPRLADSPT
# T6 sequence (Q61606 27-485): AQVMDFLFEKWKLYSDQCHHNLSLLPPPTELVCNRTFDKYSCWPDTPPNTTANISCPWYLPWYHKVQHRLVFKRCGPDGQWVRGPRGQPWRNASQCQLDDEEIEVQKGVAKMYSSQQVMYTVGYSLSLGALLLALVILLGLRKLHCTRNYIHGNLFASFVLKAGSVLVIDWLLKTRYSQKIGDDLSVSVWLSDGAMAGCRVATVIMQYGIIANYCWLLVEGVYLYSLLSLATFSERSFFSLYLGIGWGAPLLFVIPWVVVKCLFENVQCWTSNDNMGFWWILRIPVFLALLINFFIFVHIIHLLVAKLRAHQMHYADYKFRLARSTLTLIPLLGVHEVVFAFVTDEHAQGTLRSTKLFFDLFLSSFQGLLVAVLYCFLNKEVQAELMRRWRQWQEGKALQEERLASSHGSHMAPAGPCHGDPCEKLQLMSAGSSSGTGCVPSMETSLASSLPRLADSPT
# T4 sequence (P47871 26-477): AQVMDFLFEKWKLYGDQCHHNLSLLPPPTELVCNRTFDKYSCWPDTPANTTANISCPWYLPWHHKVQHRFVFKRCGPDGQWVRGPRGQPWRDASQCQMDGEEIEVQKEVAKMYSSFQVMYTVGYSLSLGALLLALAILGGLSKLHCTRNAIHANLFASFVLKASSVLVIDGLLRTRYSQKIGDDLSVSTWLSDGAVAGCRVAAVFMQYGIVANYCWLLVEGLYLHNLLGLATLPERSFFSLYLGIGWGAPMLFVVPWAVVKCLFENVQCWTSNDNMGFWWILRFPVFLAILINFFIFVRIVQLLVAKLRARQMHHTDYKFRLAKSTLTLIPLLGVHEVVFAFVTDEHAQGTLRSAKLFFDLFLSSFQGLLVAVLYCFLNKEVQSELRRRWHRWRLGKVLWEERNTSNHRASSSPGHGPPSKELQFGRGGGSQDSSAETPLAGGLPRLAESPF
molecule,measurement,setting,value
dulaglutide (Fc fusion),"EC50, cAMP, GLP-1 Receptor Assay; sample C6.5-4 C.-4 wk",[1],0.37 nM
same,"EC50, cAMP, GLP-1 Receptor Assay; sample C6.5-40 C.-4 wk",[1],0.31 nM
same,"EC50, cAMP, GLP-1 Receptor Assay; sample C6.5MT-4 C.-4 wk",[1],0.4 nM
same,"EC50, cAMP, GLP-1 Receptor Assay; sample C6.5MT-40 C.-4 wk",[1],0.29 nM
same,"EC50, cAMP, GIP Receptor Assay; sample C6.5-4 C.-4 wk",[2],> 100 nM
same,"EC50, cAMP, GIP Receptor Assay; sample C6.5-40 C.-4 wk",[2],> 100 nM
same,"EC50, cAMP, GIP Receptor Assay; sample C6.5MT-4 C.-4 wk",[2],> 100 nM
same,"EC50, cAMP, GIP Receptor Assay; sample C6.5MT-40 C.-4 wk",[2],> 100 nM
same,"EC50, cAMP, Gcg Receptor Assay; sample C6.5-4 C.-4 wk",[3],51.9 nM
same,"EC50, cAMP, Gcg Receptor Assay; sample C6.5-40 C.-4 wk",[3],> 100 nM
same,"EC50, cAMP, Gcg Receptor Assay; sample C6.5MT-4 C.-4 wk",[3],54 nM
same,"EC50, cAMP, Gcg Receptor Assay; sample C6.5MT-40 C.-4 wk",[3],> 100 nM
B1,Ki,[4],0.673 nM
same,"EC50, intracellular cAMP (HTRF)",[5],> 500 nM
same,"EC50, intracellular cAMP (HTRF)",[6],> 100 nM
same,"EC50, intracellular cAMP (HTRF)",[7],16.6 pM
same,Ki,rat glucagon receptor,1.38 nM
same,Ki,mouse glucagon receptor,0.753 nM
B2,"EC50, intracellular cAMP (HTRF)",[7],> 10000 pM
B3,Ki,[4],2.04 nM
same,"EC50, cAMP, GIP Receptor Assay; sample C6.5-4 C.-4 wk",[8],> 100 nM
same,"EC50, cAMP, GIP Receptor Assay; sample C6.5-40 C.-4 wk",[8],> 100 nM
same,"EC50, cAMP, GIP Receptor Assay; sample C6.5MT-4 C.-4 wk",[8],> 100 nM
same,"EC50, cAMP, GIP Receptor Assay; sample C6.5MT-40 C.-4 wk",[8],> 100 nM
same,"EC50, cAMP, GLP-1 Receptor Assay; sample C6.5-4 C.-4 wk",[9],41.6 nM
same,"EC50, cAMP, GLP-1 Receptor Assay; sample C6.5-40 C.-4 wk",[9],54.6 nM
same,"EC50, cAMP, GLP-1 Receptor Assay; sample C6.5MT-4 C.-4 wk",[9],55.6 nM
same,"EC50, cAMP, GLP-1 Receptor Assay; sample C6.5MT-40 C.-4 wk",[9],47.9 nM
same,"EC50, cAMP, Gcg Receptor Assay; sample C6.5-4 C.-4 wk",[10],17.8 pM
same,"EC50, cAMP, Gcg Receptor Assay; sample C6.5-40 C.-4 wk",[10],24.3 pM
same,"EC50, cAMP, Gcg Receptor Assay; sample C6.5MT-4 C.-4 wk",[10],18.8 pM
same,"EC50, cAMP, Gcg Receptor Assay; sample C6.5MT-40 C.-4 wk",[10],14.6 pM
same,"EC50, intracellular cAMP (HTRF)",[5],> 500 nM
same,"EC50, intracellular cAMP (HTRF)",[6],73.9 nM
same,"EC50, intracellular cAMP (HTRF)",[7],4.36 pM
same,Ki,rat glucagon receptor,9.78 nM
same,"EC50, cAMP, GIP Receptor Assay; sample T7-4 C.-4 wk",[11],> 100 nM
same,"EC50, cAMP, GIP Receptor Assay; sample T7-40 C.-4 wk",[11],> 100 nM
same,"EC50, cAMP, GIP Receptor Assay; sample T7m-4 C.-4 wk",[11],> 100 nM
same,"EC50, cAMP, GIP Receptor Assay; sample T7m-40 C.-4 wk",[11],> 100 nM
same,"EC50, cAMP, GLP-1 Receptor Assay; sample T7-4 C.-4 wk",[12],> 100 nM
same,"EC50, cAMP, GLP-1 Receptor Assay; sample T7-40 C.-4 wk",[12],57.5 nM
same,"EC50, cAMP, GLP-1 Receptor Assay; sample T7m-4 C.-4 wk",[12],43.8 nM
same,"EC50, cAMP, GLP-1 Receptor Assay; sample T7m-40 C.-4 wk",[12],49.7 nM
same,"EC50, cAMP, Gcg Receptor Assay; sample T7-4 C.-4 wk",[13],20.3 pM
same,"EC50, cAMP, Gcg Receptor Assay; sample T7-40 C.-4 wk",[13],21.7 pM
same,"EC50, cAMP, Gcg Receptor Assay; sample T7m-4 C.-4 wk",[13],23 pM
same,"EC50, cAMP, Gcg Receptor Assay; sample T7m-40 C.-4 wk",[13],19.4 pM
same,Ki,mouse glucagon receptor,1.92 nM
B4,Ki,[4],1.07 nM
same,"EC50, intracellular cAMP (HTRF)",[5],> 500 nM
same,"EC50, intracellular cAMP (HTRF)",[6],> 100 nM
same,"EC50, intracellular cAMP (HTRF)",[7],11.2 pM
same,Ki,rat glucagon receptor,5.59 nM
same,Ki,mouse glucagon receptor,0.991 nM
B5,Ki,[4],0.287 nM
same,"EC50, cAMP, GIP Receptor Assay; sample C6.5-4 C.-4 wk",[8],> 100 nM
same,"EC50, cAMP, GIP Receptor Assay; sample C6.5-40 C.-4 wk",[8],> 100 nM
same,"EC50, cAMP, GIP Receptor Assay; sample C6.5MT-4 C.-4 wk",[8],> 100 nM
same,"EC50, cAMP, GIP Receptor Assay; sample C6.5MT-40 C.-4 wk",[8],> 100 nM
same,"EC50, cAMP, GLP-1 Receptor Assay; sample C6.5-4 C.-4 wk",[9],> 100 nM
same,"EC50, cAMP, GLP-1 Receptor Assay; sample C6.5-40 C.-4 wk",[9],> 100 nM
same,"EC50, cAMP, GLP-1 Receptor Assay; sample C6.5MT-4 C.-4 wk",[9],> 100 nM
same,"EC50, cAMP, GLP-1 Receptor Assay; sample C6.5MT-40 C.-4 wk",[9],> 100 nM
same,"EC50, cAMP, Gcg Receptor Assay; sample C6.5-4 C.-4 wk",[10],36.9 pM
same,"EC50, cAMP, Gcg Receptor Assay; sample C6.5-40 C.-4 wk",[10],25.7 pM
same,"EC50, cAMP, Gcg Receptor Assay; sample C6.5MT-4 C.-4 wk",[10],19.3 pM
same,"EC50, cAMP, Gcg Receptor Assay; sample C6.5MT-40 C.-4 wk",[10],21.4 pM
same,"EC50, intracellular cAMP (HTRF)",[5],> 500 nM
same,"EC50, intracellular cAMP (HTRF)",[6],> 100 nM
same,"EC50, intracellular cAMP (HTRF)",[7],3.4 pM
same,Ki,rat glucagon receptor,1.56 nM
same,"EC50, cAMP, GIP Receptor Assay; sample T7-4 C.-4 wk",[11],> 100 nM
same,"EC50, cAMP, GIP Receptor Assay; sample T7-40 C.-4 wk",[11],> 100 nM
same,"EC50, cAMP, GIP Receptor Assay; sample T7m-4 C.-4 wk",[11],> 100 nM
same,"EC50, cAMP, GIP Receptor Assay; sample T7m-40 C.-4 wk",[11],> 100 nM
same,"EC50, cAMP, GLP-1 Receptor Assay; sample T7-4 C.-4 wk",[12],> 100 nM
same,"EC50, cAMP, GLP-1 Receptor Assay; sample T7-40 C.-4 wk",[12],> 100 nM
same,"EC50, cAMP, GLP-1 Receptor Assay; sample T7m-4 C.-4 wk",[12],> 100 nM
same,"EC50, cAMP, GLP-1 Receptor Assay; sample T7m-40 C.-4 wk",[12],> 100 nM
same,"EC50, cAMP, Gcg Receptor Assay; sample T7-4 C.-4 wk",[13],14.3 pM
same,"EC50, cAMP, Gcg Receptor Assay; sample T7-40 C.-4 wk",[13],24.9 pM
same,"EC50, cAMP, Gcg Receptor Assay; sample T7m-4 C.-4 wk",[13],21.1 pM
same,"EC50, cAMP, Gcg Receptor Assay; sample T7m-40 C.-4 wk",[13],21.1 pM
same,Ki,mouse glucagon receptor,0.174 nM
B6,Ki,[4],0.316 nM
same,"EC50, intracellular cAMP (HTRF)",[5],> 500 nM
same,"EC50, intracellular cAMP (HTRF)",[6],> 100 nM
same,"EC50, intracellular cAMP (HTRF)",[7],4.13 pM
same,Ki,rat glucagon receptor,0.98 nM
same,Ki,mouse glucagon receptor,0.123 nM
